{"source": "paper doi:10.1101/2024.06.17.599268", "about": "(bioRxiv, 2024)", "binders": {"B1": {"name": "Rab8a_(1-176) (natural protein)", "chain": "MAKTYDYLFKLLLIGDSGVGKTCVLFRFSEDAFNSTFISTIGIDFKIRTIELDGKRIKLQIWDTAGQERFRTITTAYYRGAMGIMLVYDITNEKSFDNIRNWIRNIEEHASADVEKMILGNKCDVNDKRQVSKERGEKLALDYGIKFMETSAKANINVENAFFTLARDIKAKMDKK"}, "B2": {"name": "bMERB_(S960D) (domain or fragment)", "chain": "KEEEMKRFCKAQTIQRRLNEIEAALRELEAEGVKLELALRRQDSSPEQQKKLWVGQLLQLVDKKNSLVAEEAELMITVQELNLEEKQWQLDQELRGYMNREENLKTAADRQAEDQVLRKLVDLVNQRDALIRFQEERRLSELALGTGAQG"}, "B3": {"name": "bMERB_(V978A_V985A) (domain or fragment)", "chain": "B2 chain with D43S, V61A, V68A"}, "B4": {"name": "Mical1 bMERB domain (residues 918-1067) (domain or fragment)", "chain": "B2 chain with D43S"}}, "key": {"[1]": {"target": "T1, full-length Mical1 (human, UniProt Q8TDZ2 1-1067)", "T1 sequence": "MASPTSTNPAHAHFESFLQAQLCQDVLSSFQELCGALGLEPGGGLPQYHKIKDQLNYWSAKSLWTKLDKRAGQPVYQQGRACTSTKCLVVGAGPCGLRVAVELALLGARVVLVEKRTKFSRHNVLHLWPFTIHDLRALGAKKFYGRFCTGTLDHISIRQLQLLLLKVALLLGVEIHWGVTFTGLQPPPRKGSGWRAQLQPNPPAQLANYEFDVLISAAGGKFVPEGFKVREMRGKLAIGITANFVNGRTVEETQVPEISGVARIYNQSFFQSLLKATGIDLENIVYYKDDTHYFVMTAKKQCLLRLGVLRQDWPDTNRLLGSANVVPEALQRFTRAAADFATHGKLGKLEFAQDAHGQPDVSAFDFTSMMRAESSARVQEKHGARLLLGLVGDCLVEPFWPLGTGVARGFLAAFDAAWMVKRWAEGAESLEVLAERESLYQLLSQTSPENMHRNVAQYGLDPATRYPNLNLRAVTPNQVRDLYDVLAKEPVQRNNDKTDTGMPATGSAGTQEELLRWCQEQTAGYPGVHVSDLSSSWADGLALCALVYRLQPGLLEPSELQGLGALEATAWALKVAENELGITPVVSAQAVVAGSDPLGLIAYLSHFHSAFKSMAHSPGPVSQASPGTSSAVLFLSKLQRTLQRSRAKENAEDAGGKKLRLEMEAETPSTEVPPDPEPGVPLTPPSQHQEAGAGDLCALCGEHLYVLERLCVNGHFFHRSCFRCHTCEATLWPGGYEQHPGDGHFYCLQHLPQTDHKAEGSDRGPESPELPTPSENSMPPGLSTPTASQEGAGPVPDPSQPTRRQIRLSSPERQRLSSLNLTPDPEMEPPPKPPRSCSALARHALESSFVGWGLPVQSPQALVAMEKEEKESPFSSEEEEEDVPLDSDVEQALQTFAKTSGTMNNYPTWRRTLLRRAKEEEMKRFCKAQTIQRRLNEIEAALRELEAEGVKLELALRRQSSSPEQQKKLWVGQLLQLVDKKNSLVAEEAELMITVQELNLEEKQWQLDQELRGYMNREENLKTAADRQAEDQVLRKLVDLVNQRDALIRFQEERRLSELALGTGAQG", "assay": "ITC"}, "[2]": {"target": "B3", "assay": "ITC"}, "[3]": {"target": "T2, bMERB_(L1047A_F1050A) (human, UniProt Q8TDZ2 918-1067, L1047A | F1050A)", "T2 sequence": "B2 chain with D43S, L130A, F133A", "assay": "ITC"}, "[4]": {"target": "T3, bMERB_(M992A_I993A) (human, UniProt Q8TDZ2 918-1067, M992A | I993A)", "T3 sequence": "B2 chain with D43S, M75A, I76A", "assay": "ITC"}, "[5]": {"target": "B4", "assay": "ITC"}, "[6]": {"target": "T4, Mical1 MO-CH-LIM (residues 1-781) (human, UniProt Q8TDZ2 1-781)", "T4 sequence": "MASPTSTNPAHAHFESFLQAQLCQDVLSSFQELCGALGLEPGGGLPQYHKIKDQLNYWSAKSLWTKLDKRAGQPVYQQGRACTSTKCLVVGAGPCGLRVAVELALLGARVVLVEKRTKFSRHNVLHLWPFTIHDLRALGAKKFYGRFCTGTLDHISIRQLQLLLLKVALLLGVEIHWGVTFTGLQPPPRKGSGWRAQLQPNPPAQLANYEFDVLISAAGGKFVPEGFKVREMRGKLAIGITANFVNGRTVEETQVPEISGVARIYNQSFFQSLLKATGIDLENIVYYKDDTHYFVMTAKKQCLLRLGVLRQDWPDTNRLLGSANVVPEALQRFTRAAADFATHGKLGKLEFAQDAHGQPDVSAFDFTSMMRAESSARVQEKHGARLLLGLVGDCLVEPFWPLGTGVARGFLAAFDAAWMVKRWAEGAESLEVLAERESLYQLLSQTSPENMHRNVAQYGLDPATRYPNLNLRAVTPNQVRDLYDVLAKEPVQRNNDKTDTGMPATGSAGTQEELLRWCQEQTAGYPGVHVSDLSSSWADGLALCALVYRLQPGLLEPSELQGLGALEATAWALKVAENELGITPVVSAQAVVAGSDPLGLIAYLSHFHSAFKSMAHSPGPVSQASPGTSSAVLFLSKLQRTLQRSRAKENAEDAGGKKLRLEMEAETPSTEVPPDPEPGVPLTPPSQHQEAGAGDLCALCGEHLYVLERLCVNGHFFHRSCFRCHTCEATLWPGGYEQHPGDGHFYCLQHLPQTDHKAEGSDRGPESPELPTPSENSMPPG", "assay": "ITC"}, "[7]": {"target": "T5, Rab15_(1-176) (human, UniProt P59190 1-176)", "T5 sequence": "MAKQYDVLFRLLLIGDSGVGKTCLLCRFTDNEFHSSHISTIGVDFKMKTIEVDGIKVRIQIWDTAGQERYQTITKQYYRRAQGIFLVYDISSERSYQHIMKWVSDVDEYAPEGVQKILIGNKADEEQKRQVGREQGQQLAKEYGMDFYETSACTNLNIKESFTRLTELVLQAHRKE", "assay": "ITC"}, "[8]": {"target": "B1", "assay": "ITC"}, "[9]": {"target": "T6, Rab10_(1-175) (human, UniProt P61026 1-175)", "T6 sequence": "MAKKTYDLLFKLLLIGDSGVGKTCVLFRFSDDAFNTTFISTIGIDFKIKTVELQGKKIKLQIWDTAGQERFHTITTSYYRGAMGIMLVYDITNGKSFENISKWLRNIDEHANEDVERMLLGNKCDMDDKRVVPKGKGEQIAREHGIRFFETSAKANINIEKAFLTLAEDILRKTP", "assay": "ITC"}, "[10]": {"target": "T5, Rab15_(1-176)", "assay": "SEC"}, "[11]": {"target": "B1", "assay": "SEC"}, "[12]": {"target": "T6, Rab10_(1-175)", "assay": "SEC"}, "[13]": {"target": "T7, Rab13_(1-176) (human, UniProt P51153 1-176)", "T7 sequence": "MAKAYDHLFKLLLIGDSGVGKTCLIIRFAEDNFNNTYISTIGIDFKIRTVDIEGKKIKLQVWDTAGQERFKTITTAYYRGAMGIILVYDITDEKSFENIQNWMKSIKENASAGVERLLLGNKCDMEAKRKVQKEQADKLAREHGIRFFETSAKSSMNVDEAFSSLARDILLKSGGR", "assay": "SEC"}}, "note": "Numbering of substitutions follows the chain as printed. In names and notes the source's numbering stands.", "data": [{"binder": "B1", "values": [{"measurement": "stoichiometry N", "setting": "[1]", "result": 2}, {"measurement": "stoichiometry N", "setting": "[2]", "result": 1}, {"measurement": "fold decrease in C-terminal (Ct-RBS2) Rab8 binding against wild-type bMERB", "setting": "[3]", "result": "> 20", "unit": "fold"}, {"measurement": "fold decrease in N-terminal (Nt-RBS1) Rab binding against wild-type bMERB", "setting": "[3]", "result": 10, "unit": "fold"}, {"measurement": "fold decrease in N-terminal (Nt-RBS1) Rab binding against wild-type bMERB", "setting": "[4]", "result": "> 30", "unit": "fold"}, {"measurement": "stoichiometry N", "setting": "[5]", "result": 2}]}, {"binder": "B2", "values": [{"measurement": "binding result", "setting": "[6]", "result": "binds"}, {"measurement": "binding result", "setting": "[7]", "result": "binds"}, {"measurement": "binding result", "setting": "[8]", "result": "binds"}, {"measurement": "binding result", "setting": "[9]", "result": "binds"}]}, {"binder": "B3", "values": [{"measurement": "binding result", "setting": "[10]", "result": "binds"}, {"measurement": "binding result", "setting": "[11]", "result": "binds"}, {"measurement": "binding result", "setting": "[12]", "result": "binds"}, {"measurement": "binding result", "setting": "[13]", "result": "binds"}]}, {"binder": "B4", "values": [{"measurement": "binding result", "setting": "[10]", "result": "binds"}, {"measurement": "binding result", "setting": "[11]", "result": "binds"}, {"measurement": "binding result", "setting": "[12]", "result": "binds"}]}]}
